Measurements reported in the nanobody polyreactivity screen of Harvey et al. (2022).

test: yeast display, Sf9 membrane polyspecificity reagent, FACS + sequencing; frameworks hold sequencing errors
Outline: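 In a synthetic yeast display library (Saccharomyces cerevisiae BJ5465), nanobody expression was induced with galactose for 36–48 hours. FACS gates were set low and high (top ~1%) using anti-HA fluorescence for expression and streptavidin fluorescence for binding of the Sf9 membrane reagent. Each polyreactivity label is drawn from the gate of origin.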

| Sequence | polyreactivity (PSR sort gate) |
| --- | --- |
| QVQLVESGGGLVQAGGSLRLSCAASGRTFGSYAMGWYRPAPGKERELVAGISWSGGITYYADSVKGRFTISRDNAKNSVYLQMNSLKPEDTAVYYCAADSVVWEMEYWGQGTQVTVSS | high polyreactivity |
| QVQLVESGGGLVQAGGSLRLSCAASGRTFGSYAMGWYRQAPGKEREFVAGISYGGGRTYYADSVKGRFTISRDNAKNTVYLQMNSLKPEDTAVYYCAADGVYRYNYPYLYTYDYWGQGTQVTVSS | low polyreactivity |
| QVQLVESGGGLVQAGGSLRLSCAASGRTFGSYAMGWYRQAPGKERELVAAISRSGTNTYYADSVKGRFTISRDNAKNTVYLQMNSLKPEDTAVYYCATDFYFSSVLVWFSYGYWGQGTQVTVSS | low polyreactivity |
| QVQLVESGGGLVQAGGSLRLSCAASGRTFGSYTMGWYRQAPGKERELVAAISWSGGRTYYADSVKGRFTISRDNAKNTVYLQMNSLKPEDTAVYYCNADAEVVPGEYDYWGQGTQVTVSS | low polyreactivity |
| QVQLVESGGGLVQAGGSLRLSCAASGRTFGTNAMGWYRQAPGKERELVASIDLSADSTYYADSVKGRFTISRDNAKNNFYLQMNSLKPEDTAVYYCNKDGYPWPPNLDYWGQGTQVTVSS | low polyreactivity |
| QVQLVESGGGLVQAGGSLRLSCAASGRTFGTNTMGWYRQAPGKEREFVATITSSGGSTYYADSVKGRFTISRDNAKNTVYVQINSLKPEATAVYYCATDPYGGNTLYPSLRYDYWGQGTQVTVSS | low polyreactivity |
| QVQLVESGGGLVQAGGSLRLSCAASGRTFGTYAMGWYRQAPGKERELVAAITSGTRTYYADSVKGRFTISRDNAKNTVYLQMNSLKPEDTAVYDCAAGLVYRWSSTPRRLYYYWGQGTQVTVSS | high polyreactivity |
| QVQLVESGGGLVQAGGSLRLSCAASGRTFGVNAMGWYRQAPGKERELVAAISRSGGSTYYADSVKGRFTISRDNAKNTVYLQMNSLKPEDTAVYYCAKSYFGNHLTGFGYWGQGTQVTVSS | low polyreactivity |
| QVQLVESGGGLVQAGGSLRLSCAASGRTFGVYAMGSYRQAPGKEREFVATIRTTGSTNYADSVKGRFTISRDNAKNTVYLQMNSLKTEDTAVYYCAARQRQSKYYPYTTFTYDYWGQGTQVTVSS | high polyreactivity |
| QVQLVESGGGLVQAGGSLRLSCAASGRTFGVYAMGWYRQAPGKERELVAAIRWSGGGTYYADSVKGRFTISRDNAKNTVYLQMISLKPEDTAVYYCAATFQNSPYTRYTDMYYWGQGTQVTVSS | low polyreactivity |
| QVQLVESGGGLVQAGGSLRLSCAASGRTFGWNAMGWYRQAPGKERELVAAISLRGTSTYYADSVKGRFTISRDNAKNTVYLQMNSLKPEDTAVYYCAARGRNGVNYWGQGTQVTVSS | high polyreactivity |
| QVQLVESGGGLVQAGGSLRLSCAASGRTFGWYAMGWYRQAPGKERELVAAITSGTSTYYADSVKGRFTISRDNAKNTVYLQMNSLKPEDTAVYYCAAQQGISNGTGVSATNPMDYWGQGTQVTVSS | low polyreactivity |
| QVQLVESGGGLVQAGGSLRLSCAASGRTFGWYAMGWYRQAPGKERELVAAITSGTSTYYADSVKGRFTISRDNAKNTVYLQMYSLKPEDTAVYYCAVDRGISVGYTRFDYWGQGTEVTVSS | low polyreactivity |
| QVQLVESGGGLVQAGGSLRLSCAASGRTFGWYTMGWYRHAPGKERELVAAISRSGTSTYYADSVKGRFTISRDNAKNTVYLQMHSLKPEDTAVYYCAQYVNARGGNDWGQGTLVTVSS | high polyreactivity |
| QVQLVESGGGLVQAGGSLRLSCAASGRTFGWYTMGWYRKAPGKVRELVAGISSSGGSTYYADSVKGRFTISRDNAKNTVYLQMNSLKPEDTAVYYCARETYPHGLYYRPYDYWGQGTQVTVSS | low polyreactivity |
| QVQLVESGGGLVQAGGSLRLSCAASGRTFGWYTMGWYRQAPGKEREFVAAISSSDTSTYYADSVKGRFTISRDNAKNTVYLQMNSLKPEDTAVYYCAADPPSWLWFVGYSYDYWGQGTQVTVTS | low polyreactivity |
| QVQLVESGGGLVQAGGSLRLSCAASGRTFGYNAMGWYRQAPGKERELVAAIRYSGGSTYYADSVKGRFTISRDNAKNTVYLQMNSLKPEDTAVYYCAKETRRYYRGYYYWGQGTQVTVSS | high polyreactivity |
| QVQLVESGGGLVQAGGSLRLSCAASGRTFGYNAMGWYRQAPGKERELVAAISSSGGSTYYADSVKGRFTISRDNAKNTVYLQMNSLKPEDTAVYYCATQGYSWAHGSDYWGQGTQVTVSS | low polyreactivity |
| QVQLVESGGGLVQAGGSLRLSCAASGRTFGYNAMGWYRQAPGKERELVATISWGCGSTYYADSLKWRFTISPDNAKNTVYLQMNSLKPEDTAVYYCNKVHYGRLHSYSRAIYGEDYWGQGTQVTVSS | high polyreactivity |
| QVQLVESGGGLVQAGGSLRLSCAASGRTFGYNAMGWYRQAPGKETELVAAIRYSGGSTYYADSVKGRFTISRDNSKNTVYLQMNSLKPEDTAVYYCAKETRRYYRGYYYWGQGTQVTVSS | high polyreactivity |
| QVQLVESGGGLVQAGGSLRLSCAASGRTFGYNVMGWYRQAPGKERELVADITSTSSTSYADSVKGRFTISRDNAKNTVYLQMNSLKPEDTAVYYCAAYYYFFRRYSWRLSGDYWGQGTQVTVSS | low polyreactivity |
| QVQLVESGGGLVQAGGSLRLSCAASGRTFGYYAMGWYIQAPGKERELVAAISSRGGSTYYADSVKGRFTISRDNAKNTVYLQMNSLKPEDTAVYYCNTRWTNIHPRYDYWGQGTQVTVSS | high polyreactivity |

| Sequence | polyreactivity (PSR sort gate) |
| --- | --- |
| QVQLVESGGGLVQAGGSLRLSCAASGRTFGYYAMGWYRPAPGKERELVAAISSGGGTYYADSVKGRFTISRDNAKNTVYLQRNSLNPEASAVYYIAATGWLYWGQFYYWGQGTLVTVSS | low polyreactivity |
| QVQLVESGGGLVQAGGSLRLSCAASGRTFGYYAMGWYRQAPGKEREFVAAISFRTTSTYYADSVKGRFTISRDNAKNTVYLQMNSLKPEDTAVYYCNADWYLLSTWYDYWGQGTQVTVSS | high polyreactivity |
| QVQLVESGGGLVQAGGSLRLSCAASGRTFGYYAMGWYRQAPGKERELVAAISGSGGSTYYADSVKGRFTISRDNAKNTVYLQMKSLKPEDTAVYYCNVYPPYAMDYWGQGTQVTVSS | high polyreactivity |
| QVQLVESGGGLVQAGGSLRLSCAASGRTFGYYAMGWYRQAPGKERELVAAISRSGGSTYYADSVKGRFTISRDNAKNTVYLQMNSLKPEDTAVYYCAVKGYVKSDYWGQGTQVTVSS | high polyreactivity |
| QVQLVESGGGLVQAGGSLRLSCAASGRTFGYYAMGWYRQAPGKERELVAAISWSGGRTYYADSVKGRFTISRDNAKNTVYLQMNSLKPEDTAVYYCAAQTAGFWYDYWGQGTQVTVSS | high polyreactivity |
| QVQLVESGGGLVQAGGSLRLSCAASGRTFGYYAMGWYRTAPGKERELVAAIRSTGSTNYADSVKGRFTISRDNAKNTVYLQMNSLKPEDTAVYYCNAKRRFRYDYWGQGTQVTVSS | low polyreactivity |
| QVQLVESGGGLVQAGGSLRLSCAASGRTFGYYTMGWSRQAPGKERDLVATISSDGTTNYADSVKGRFTISRDNAKNTVYLQMNSLKPEDTAVYYCNADFRLQYYYRIYDYWGQGTQVTVSS | low polyreactivity |
| QVQLVESGGGLVQAGGSLRLSCAASGRTFGYYVMGWYRQAPGKERELVAAISQSGGSTYYADSVKGRFTISRDNAKNTVYLQMNSLKPEDTAVYYCAKRGWRTFQGGYWGQGTQVTVSS | high polyreactivity |
| QVQLVESGGGLVQAGGSLRLSCAASGRTFHGYAMGWYRQAPGKERELVARINWSDGRTYYADSVKGRFTISRDNAKNTVYLQMNSLKPVDTAVYYCAADKNVSYAPAWFYYWGQGTQVTVSS | low polyreactivity |
| QVQLVESGGGLVQAGGSLRLSCAASGRTFHHNAMGWYRQAPGKERELVATITAGSGSTYYADSVKGRFTISRDNAKNTVYLQMNSQKPEDTAVYYCAARVGWNKRRYDYWGQCTQVTVSS | low polyreactivity |
| QVQLVESGGGLVQAGGSLRLSCAASGRTFHIYAMGWYRQAPGKERELVAAIRGRSGSTYYADSVKGRFTISRDNAKNTVYLQMNSLKPEDTAVYYCAVGRYPYGSARYRFDYWGQGTQVTVSS | high polyreactivity |
| QVQLVESGGGLVQAGGSLRLSCAASGRTFHKNAMGWYRQAPGQERELVAAISGSGGSTYYADSVKGRFTISRDNAKNTVYLQMNSLKPEDTAVYYCAADSSYYEEDYWGQGNQVTVSS | high polyreactivity |
| QVQLVESGGGLVQAGGSLRLSCAASGRTFHRYAMGWYRQAPGKERELVATISRGGSTNYADSVKGRFTISRDNAKNTVYLQMHSLKPEDTAVYYCAAESWIYWYPDTGDYWGQGTQVTLSS | high polyreactivity |
| QVQLVESGGGLVQAGGSLRLSCAASGRTFHSNAMGWYRKAPGKERELVAAIRFGGGSTYYADSVKGRFTISRDNAKNTVYLQMNSLKPEDTAVYYCNASPLWIGWEIVPVGSSHYDYWGQGTQVTVSS | low polyreactivity |
| QVQLVESGGGLVQAGGSLRLSCAASGRTFHSNDMGWYRQAPGKERELVAAISSSDGITYYADSVKGRFTISRDNAKNTVYLQMNSLKQEDNAVYYCAARRYRSGYYSFYFWGQGTQVTVSS | high polyreactivity |
| QVQLVESGGGLVQAGGSLRLSCAASGRTFHYNAMGWYRQAPGKERELVAAITRSGGSTYYADSVKGRFTISRDNAKNTVYLQMNSLKPEDTAVYYCNAAYLHPGPFDYWGQGTQVTVSS | low polyreactivity |
| QVQLVESGGGLVQAGGSLRLSCAASGRTFHYYAMGWYRQAPGKERELVAGISRRGGSTSYADSVKGRFTISRDNAKNTLYLQMNSLKPEDTAVYYCNADRVTFSWPVNYYWVDYWGQGTQVTVSS | high polyreactivity |
| QVQLVESGGGLVQAGGSLRLSCAASGRTFIGNVMGWSRQAPGKERELVAAITRSGGSTYYADSVKGRFTISRDNAKNTVYLQMNSLKPEDTAVYYCNAVRRTGGHGDYWGQGTQVTVSS | high polyreactivity |
| QVQLVESGGGLVQAGGSLRLSCAASGRTFIGYAMGWYRQAPGKERELVAAISSGGNTYYADSVKGRFTISRDNAKNTVYFQMNSLKPEDTAVYYCAAKGYRRVARYFIGDYWGQGTQVTVSS | low polyreactivity |
| QVQLVESGGGLVQAGGSLRLSCAASGRTFIIYTMGWYRQAPGKEREFVAAITRSGGGTYYADSVKGRFTISRDNAKNTVYLQMNSLKPEDTAVYYCAADRFYDQAYDYWGQGTQVTVSS | low polyreactivity |
| QVQLVESGGGLVQAGGSLRLSCAASGRTFIIYTMGWYRQAPGKEREFVAAITRSGGGTYYADSVKGRFTISRDNAKNTVYLQMNSLKPEDTAVYYFAADRFYDQAYDYWGQGTQVTVSS | low polyreactivity |
